Reference: paper PMC2112059

Molecular target: Triton X-100-insoluble residue of platelets (platelet cytoskeleton) (human (endogenous in platelets)) (UniProt P60709)
Assay: co-sedimentation

percent of radioactivity in the supernatant fraction, without m1: > 95%
Substance: platelet surface glycoprotein GPIII (from UniProt P05106 27-788) (natural protein)
